Values belong to the substance of their own block, whether it stands above or below them.
Assays:
[1] = molecular target: Mic60sol (Chaetomium thermophilum Mic60, residues 208–691) (Chaetomium thermophilum); test: ITC; about 450 μM Mic19 construct in the syringe titrated into about 40 μM Mic60 construct in the cell; 10 °C; 20 mM HEPES/NaOH pH 7.5, 150 mM NaCl; untagged proteins
[2] = molecular target: Mic60sol (Chaetomium thermophilum Mic60, residues 208–691) (Chaetomium thermophilum); test: native gel or EMSA; blue native (BN)-PAGE of purified Mic60 constructs
[3] = molecular target: Mic60sol (Chaetomium thermophilum Mic60, residues 208–691) (Chaetomium thermophilum); test: AUC; sedimentation velocity (40,000 r.p.m., 3.5 h) and sedimentation equilibrium (9,000 r.p.m.); 20 mM HEPES/NaOH pH 7.3, 150 mM NaCl, 7 °C; 0.02–2 mg ml^-1 Mic60sol
[4] = molecular target: Mic60solΔMito (Chaetomium thermophilum Mic60, residues 208–608) (Chaetomium thermophilum); test: native gel or EMSA; blue native (BN)-PAGE of purified Mic60 constructs
[5] = molecular target: Mic60solΔMitoΔLBS2 (Chaetomium thermophilum Mic60, residues 208–582) (Chaetomium thermophilum); test: as above
[6] = molecular target: full-length Mic19 (Chaetomium thermophilum) (Chaetomium thermophilum); test: SEC; gel filtration of purified Mic19 and its C132S/C143S mutant; the dimers were sensitive to reducing agents in SDS–PAGE

Kd [1]: 3500 nM
stoichiometry N [1]: 1
Substance: C132S/C143S Mic19 mutant (Chaetomium thermophilum) (natural protein)

stoichiometry N [2]: 2
stoichiometry N [3]: 2
Substance: Mic60sol (Chaetomium thermophilum Mic60, residues 208–691) (domain or fragment)

stoichiometry N [4]: 2
Substance: Mic60solΔMito (Chaetomium thermophilum Mic60, residues 208–608) (domain or fragment)

stoichiometry N [5]: 2
Substance: Mic60solΔMitoΔLBS2 (Chaetomium thermophilum Mic60, residues 208–582) (domain or fragment)

percent dimers [6]: 30%
stoichiometry N [6]: 2
Kd [1]: 170 nM
stoichiometry N [1]: 0.73
Substance: full-length Mic19 (Chaetomium thermophilum) (natural protein)

Reference: paper PMC5460017
